Experimental findings from PMC12329532, “GAPDH heme delivery to Indoleamine 2,3-dioxygenase 1 involves their complex formation and complementary charge pairing at the protein-protein interface” (The Journal of Biological Chemistry, 2025) are described below.

For assay [1], the target named is FLAG-tagged IDO1 K101A expressed in HEK293T cells (human, UniProt P14902 1-403, K101A). Description: cell-based or functional assay.
Assay [2] deals with FLAG-tagged IDO1 K101D expressed in HEK293T cells (human, UniProt P14902 1-403, K101D). The assay can be described thus: cell-based or functional assay.
FLAG-tagged IDO1 K101D expressed in HEK293T cells, sequence (P14902 whole entry K101D): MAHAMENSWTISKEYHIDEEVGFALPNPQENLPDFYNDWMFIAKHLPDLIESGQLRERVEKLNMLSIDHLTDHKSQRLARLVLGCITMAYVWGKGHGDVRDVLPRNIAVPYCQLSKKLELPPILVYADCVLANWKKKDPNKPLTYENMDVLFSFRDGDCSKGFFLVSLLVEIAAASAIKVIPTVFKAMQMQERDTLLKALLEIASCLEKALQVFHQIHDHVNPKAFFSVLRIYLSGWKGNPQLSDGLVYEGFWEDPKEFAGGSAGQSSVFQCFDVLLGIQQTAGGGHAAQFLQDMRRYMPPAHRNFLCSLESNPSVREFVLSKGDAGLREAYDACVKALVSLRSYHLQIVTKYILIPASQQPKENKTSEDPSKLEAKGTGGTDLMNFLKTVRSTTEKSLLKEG
In assay [3] the target is T1, N-terminally His6-tagged human IDO1 (indoleamine 2,3-dioxygenase 1), purified apo-IDO1 (human, UniProt P14902 1-403, Alexa Fluor 488 on Cys groups (in the fluorescence polarisation assay only)).
T1 construct: human indoleamine 2,3-dioxygenase 1, cloned in the pHis-parallel1 vector; About 0.1 mol residual heme per mol protein; no effort was made to remove it; also called His6-IDO1; wild-type purified IDO1; source: E. coli BL21 (DE3), purified (Ni-NTA)
T1 sequence (P14902 whole entry): as the sequence (P14902 whole entry K101D) above, with D101K counted along it
Description: cross-linking; proteins bound to each other at RT for 30 min, then 100-fold excess of DSSO for 15 min at RT; 50 mM HEPES pH 7.4, 100 mM NaCl; trypsin digest and MS-cleavable XL-MS. The conditions noted are these: both partners purified.

FLAG-tagged IDO1 K101A expressed in HEK293T cells, sequence (P14902 whole entry K101A): as the sequence (P14902 whole entry K101D) above, with D101A counted along it

B1: GAPDH of HEK293T cells (native) (enzyme)
chain: not shown
With B1, in assay [1], the “14C heme counts in the IDO1 immunoprecipitates, relative to wild-type IDO1” value came out at 68 % decrease; the “IDO1 catalytic activity of cell supernatants, relative to wild type” value was 65 % reduced; the “L-Kyn buildup in the culture medium over a 5 h period, relative to wild-type IDO1” value is approximately 60 % less. Further, in assay [2], the “14C heme counts in the IDO1 immunoprecipitates, relative to wild-type IDO1” value worked out at 68 % decrease; the “IDO1 catalytic activity of cell supernatants, relative to wild type” value stood at 65 % reduced; the “L-Kyn buildup in the culture medium over a 5 h period, relative to wild-type IDO1” value is approximately 60 % less.

B2: rabbit GAPDH protein (Sigma #G2267) (enzyme)
chain: not shown
notes: rabbit glyceraldehyde 3-phosphate dehydrogenase; MS data were searched against P46406; The printed cross-linked residues K334 and K215 fit human GAPDH P04406; also called glyceraldehyde 3-phosphate dehydrogenase; source: bought: Sigma #G2267
Take B2: the binding result in assay [3] is “binds”.
